Source: US20070207955A1, “Novel polypeptide and process for producing the same, and collagenase inhibitor” (priority 2006, published 2007)

Experiments:
[1] = target: polypeptide of Example 3 (co-polycondensate of H-(Pro-Hyp-Gly)10-OH and H-(Pro-Hyp-Gly)4-Pro-Gln-Gly-Ile-Ala-Gly-(Pro-Hyp-Gly)4-OH, equimolar) (Artificial Sequence)
[2] = target: polypeptide of Example 2 (polycondensate of H-(Pro-Hyp-Gly)4-Pro-Gln-Gly-Ile-Ala-Gly-(Pro-Hyp-Gly)4-OH) (Artificial Sequence)
[3] = target: polypeptide of Comparative Example 1 (polycondensate of H-(Pro-Hyp-Gly)10-OH) (Artificial Sequence)
[4] = target: T1, collagenase (MMP-1, human rheumatoid synovial fibroblast) (Homo sapiens, UniProt P03956); assay: Test Example 2: collagenase inhibition, peak area of Dnp-Pro-Leu-Gly from decomposition of Dnp-Pro-Leu-Gly-Ile-Ala-Gly-Arg-NH2; assay type: biochemical; conditions: 0.025 mg polypeptide, 200 ng collagenase, 37° C. for one hour
T1 construct: collagenase (MMP-1, human rheumatoid synovial fibroblast); endogenous in cells; host or cells: human rheumatoid synovial fibroblast
T1 sequence (P03956 100-469): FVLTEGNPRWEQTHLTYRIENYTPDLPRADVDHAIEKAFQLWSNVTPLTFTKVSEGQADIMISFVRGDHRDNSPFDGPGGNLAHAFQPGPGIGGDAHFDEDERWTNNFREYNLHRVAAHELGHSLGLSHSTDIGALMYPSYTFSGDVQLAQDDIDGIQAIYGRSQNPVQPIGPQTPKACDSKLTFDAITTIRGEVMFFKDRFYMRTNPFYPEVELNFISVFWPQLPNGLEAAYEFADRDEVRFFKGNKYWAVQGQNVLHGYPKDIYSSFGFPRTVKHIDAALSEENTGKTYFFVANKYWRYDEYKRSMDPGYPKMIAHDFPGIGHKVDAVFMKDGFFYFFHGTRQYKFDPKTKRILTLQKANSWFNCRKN
Experimental: Each of the polypeptides (0.025 mg) obtained in the Examples 1 to 6 and Comparative Examples 1 and 2 was dissolved in 0.05 mL of a 50 mM Tris/HCl buffer (pH=7.5) containing 50 mM NaCl and 10 mM CaCl2. Further, to each of the solutions was added 200 ng of collagenase (MMP-1, human rheumatoid synovial fibroblast) which was dissolved in 0.05 mL of a 50 mM Tris/HCl buffer (pH=7.5) containing 50 mM NaCl and 10 mM CaCl2, and was added 0.01 mL of 1 mM DMSO solution of Dnp-Pro-Leu-Gly-Ile-Ala-Gly-Arg-NH2 (manufactured by Peptide Institute, Inc., Dnp represents 2,4-dinitrophenyl group). The resulting mixture was allowed to stand at 37° C. for one hour. Then, 0.2 mL of acetonitrile was added to the mixture, and the resultant was centrifuged at 10,000 rpm for 10 minutes.
Incidentally, as a control, a peak area of the peptide Dnp-Pro-Leu-Gly without addition of any polypeptide was measured. The peak area of the control was considered as 100, and the peak area detected by addition of each of the polypeptides obtained in Examples and Comparative Examples was calculated as a relative value to the control.

[5] = target: collagenase (MMP-1, human rheumatoid synovial fibroblast) (human) (UniProt P03956)

## collagenase (MMP-1, human rheumatoid synovial fibroblast) (from UniProt P03956) (enzyme)
[1]
  change in the molecular weight peak by gel-permeation chromatography after 24 hours at 37 C with collagenase (molecular weight): 400000
[2]
  change in the molecular weight peak by gel-permeation chromatography after 24 hours at 37 C with collagenase (molecular weight): 540000
[3]
  change in the molecular weight peak by gel-permeation chromatography after 24 hours at 37 C with collagenase (molecular weight): 540000

## H-(Pro-Hyp-Gly)10-OH [Comparative Example 2]
[4]
  inhibition of the collagenase activity: the inhibition of the collagenase activity was not recognized
[4]; pH 7.5
  relative value of the detected peak area of Dnp-Pro-Leu-Gly (control without polypeptide = 100): 96

## polypeptide of Example 6 (polycondensate of H-(Pro-Hyp-Gly)4-Pro-Leu-Gly-Ile-Ala-Gly-(Pro-Hyp-Gly)4-OH)
[5]
  relative value of the peak area of Dnp-Pro-Leu-Gly (control without polypeptide = 100) (relative to control = 100): 2

## polypeptide of Example 2 (polycondensate of H-(Pro-Hyp-Gly)4-Pro-Gln-Gly-Ile-Ala-Gly-(Pro-Hyp-Gly)4-OH)
[5]
  relative value of the peak area of Dnp-Pro-Leu-Gly (control without polypeptide = 100) (relative to control = 100): 3

## polypeptide of Example 1, H-(Pro-Hyp-Gly)4-Pro-Gln-Gly-Ile-Ala-Gly-(Pro-Hyp-Gly)4-OH
[5]
  relative value of the peak area of Dnp-Pro-Leu-Gly (control without polypeptide = 100) (relative to control = 100): 5

## peptide of Comparative Example 2, H-(Pro-Hyp-Gly)10-OH
[5]
  relative value of the peak area of Dnp-Pro-Leu-Gly (control without polypeptide = 100) (relative to control = 100): 96

## polypeptide of Comparative Example 1 (polycondensate of H-(Pro-Hyp-Gly)10-OH)
[5]
  relative value of the peak area of Dnp-Pro-Leu-Gly (control without polypeptide = 100) (relative to control = 100): 97

## polypeptide of Example 3 (co-polycondensate of H-(Pro-Hyp-Gly)10-OH and H-(Pro-Hyp-Gly)4-Pro-Gln-Gly-Ile-Ala-Gly-(Pro-Hyp-Gly)4-OH, equimolar)
[5]
  relative value of the peak area of Dnp-Pro-Leu-Gly (control without polypeptide = 100) (relative to control = 100): 12

## polypeptide of Example 4 (co-polycondensate of H-(Pro-Hyp-Gly)10-OH and H-(Pro-Hyp-Gly)4-Pro-Gln-Gly-Ile-Ala-Gly-(Pro-Hyp-Gly)4-OH, 0.00081 mmol to 0.00009 mmol)
[5]
  relative value of the peak area of Dnp-Pro-Leu-Gly (control without polypeptide = 100) (relative to control = 100): 22

## polypeptide of Example 5, H-(Pro-Hyp-Gly)4-Pro-Leu-Gly-Ile-Ala-Gly-(Pro-Hyp-Gly)4-OH
[5]
  relative value of the peak area of Dnp-Pro-Leu-Gly (control without polypeptide = 100) (relative to control = 100): 4
